First the molecules themselves.
B1: KRT71 (parent)
chain: ELRNVQDVVEDYKKRYEEEINKRT

This note sets out measurements from the supplement of paper PMC10567573.
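Further: lentivirally expressed fusions sorted by FACS into six bins by GFP to DsRed ratio, PSI derived from sequencing read proportions per bin multiplied by bin number.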

In the data set the parent is B1. The data set is described as follows: protein stability index of a GFP-peptide fusion (GPS, HEK-293T) (PSI 1-6); higher = more stable. As to conditions: c terminus: a fixed tail appended.
Regarding ELRNVQDVVEDYKKRAEEEINKRT [Y16A], the protein stability index was 4.43.
In the case of ELRNVQDVVEDYKKRWEEEINKRT [Y16W], the protein stability index was 2.68.
As to ELRNVQDVVEDYKKREEEEINKRT [Y16E], the protein stability index was determined as 4.33.
For ELRNVQDVVEDYKKRNEEEINKRT [Y16N], the protein stability index was found to be 4.1.
Regarding ELRNVQDVVEDYKKRKEEEINKRT [Y16K], the protein stability index was 3.75.
Take ELRNVQDVVEDYKKRQEEEINKRT [Y16Q]: the protein stability index came to 3.52.
As for ELRNVQDVVEDYKKRHEEEINKRT [Y16H], the protein stability index came out at 3.75.
ELRNVQDVVEDYKKRPEEEINKRT [Y16P]: the protein stability index was 3.82.
The same measure for ELRNVQDVVEDYKKRMEEEINKRT [Y16M]: 4.22; for ELRNVQDVVEDYKKRTEEEINKRT [Y16T]: 3.89; for ELRNVQDVVEDYKKRLEEEINKRT [Y16L]: 4.31.
As for ELRNVQDVVEDYKKRVEEEINKRT [Y16V], the protein stability index is 3.76.
With ELRNVQDVVEDYKKRGEEEINKRT [Y16G] the figure was 2.71.
In the case of ELRNVQDVVEDYKKRFEEEINKRT [Y16F], the protein stability index turned out to be 2.96.
For ELRNVQDVVEDYKKRDEEEINKRT [Y16D], the protein stability index is 4.38.
With ELRNVQDVVEDYKKRCEEEINKRT [Y16C], the protein stability index came out at 3.51.
As to ELRNVQDVVEDYKKRREEEINKRT [Y16R], the protein stability index worked out at 3.59.
With ELRNVQDVVQDYKKRYEEEINKRT [E10Q], the protein stability index amounted to 3.13.
Consider ELRNVQDVVADYKKRYEEEINKRT [E10A], for which the protein stability index was determined as 3.17.
On to ELRNVQDVVSDYKKRYEEEINKRT [E10S], for which the protein stability index worked out at 3.65.
The same measure for ELRNVQDVVHDYKKRYEEEINKRT [E10H]: 3.71; for ELRNVQDVVYDYKKRYEEEINKRT [E10Y]: 3.26.
For ELRNVQDVVCDYKKRYEEEINKRT [E10C], the protein stability index was 3.62.
Take ELRNVQDVVRDYKKRYEEEINKRT [E10R]: the protein stability index worked out at 4.
In the case of ELRNVQDVVMDYKKRYEEEINKRT [E10M], the protein stability index was 3.57.
With ELRNVQDVVNDYKKRYEEEINKRT [E10N] the figure was 4.22.
The same measure for ELRNVQDVVKDYKKRYEEEINKRT [E10K]: 3.14; for ELRNVQDVVIDYKKRYEEEINKRT [E10I]: 3.54; for ELRNVQDVVPDYKKRYEEEINKRT [E10P]: 3.41.
Consider ELRNVQDVVVDYKKRYEEEINKRT [E10V], for which the protein stability index was 3.11.
ELRNVQDVVTDYKKRYEEEINKRT [E10T]: the protein stability index came to 4.45.
For the variant ELRNVQDVVFDYKKRYEEEINKRT [E10F], the protein stability index was determined as 4.36.
The same measure for ELRNVQDVVWDYKKRYEEEINKRT [E10W]: 2.43.
Turning to ELRNVQDVVEIYKKRYEEEINKRT [D11I], the protein stability index worked out at 2.82.
With ELRNVQDVVEFYKKRYEEEINKRT [D11F] the figure was 3.01.
In the case of ELRNVQDVVEAYKKRYEEEINKRT [D11A], the protein stability index amounted to 3.55.
Consider ELRNVQDVVELYKKRYEEEINKRT [D11L], for which the protein stability index was found to be 3.95.
In the case of ELRNVQDVVEEYKKRYEEEINKRT [D11E], the protein stability index amounted to 3.5.
In the case of ELRNVQDVVENYKKRYEEEINKRT [D11N], the protein stability index is 3.63.
For the variant ELRNVQDVVERYKKRYEEEINKRT [D11R], the protein stability index was 3.29.
With ELRNVQDVVEKYKKRYEEEINKRT [D11K] the figure was 2.82.
On to ELRNVQDVVEQYKKRYEEEINKRT [D11Q], for which the protein stability index is 4.23.
ELRNVQDVVEHYKKRYEEEINKRT [D11H]: the protein stability index worked out at 3.77.
For the variant ELRNVQDVVESYKKRYEEEINKRT [D11S], the protein stability index came out at 3.69.
With ELRNVQDVVEPYKKRYEEEINKRT [D11P], the protein stability index worked out at 3.44.
With ELRNVQDVVEMYKKRYEEEINKRT [D11M], the protein stability index is 3.31.
Consider ELRNVQDVVECYKKRYEEEINKRT [D11C], for which the protein stability index worked out at 3.98.
With ELRNVQDVVETYKKRYEEEINKRT [D11T], the protein stability index stood at 3.63.
The same measure for ELRNVQDVTEDYKKRYEEEINKRT [V9T]: 3.73; for ELRNVQDVDEDYKKRYEEEINKRT [V9D]: 4.93.
Turning to ELRNVQDVSEDYKKRYEEEINKRT [V9S], the protein stability index was 4.35.
ELRNVQDVFEDYKKRYEEEINKRT [V9F]: the protein stability index is 3.49.
Take ELRNVQDVAEDYKKRYEEEINKRT [V9A]: the protein stability index turned out to be 3.69.
The same measure for ELRNVQDVREDYKKRYEEEINKRT [V9R]: 2.95.
As for ELRNVQDVPEDYKKRYEEEINKRT [V9P], the protein stability index came to 4.21.
Consider ELRNVQDVWEDYKKRYEEEINKRT [V9W], for which the protein stability index was determined as 4.36.
As to ELRNVQDVHEDYKKRYEEEINKRT [V9H], the protein stability index stood at 4.4.
On to ELRNVQDVGEDYKKRYEEEINKRT [V9G], for which the protein stability index was 4.2.
Take ELRNVQDVEEDYKKRYEEEINKRT [V9E]: the protein stability index was found to be 4.64.
For the variant ELRNVQDVYEDYKKRYEEEINKRT [V9Y], the protein stability index worked out at 3.62.
As to ELRNVQDVNEDYKKRYEEEINKRT [V9N], the protein stability index worked out at 3.24.
For the variant ELRNVQDVKEDYKKRYEEEINKRT [V9K], the protein stability index was 3.48.
Regarding ELRNVQDVLEDYKKRYEEEINKRT [V9L], the protein stability index is 3.03.
Turning to ELRNVQDVIEDYKKRYEEEINKRT [V9I], the protein stability index is 3.74.
Consider ELRNVQDVQEDYKKRYEEEINKRT [V9Q], for which the protein stability index was 3.66.
With ELRNVQDVVEDYKKRYWEEINKRT [E17W] the figure was 3.87; with ELRNVQDVVEDYKKRYMEEINKRT [E17M], 3.02; with ELRNVQDVVEDYKKRYFEEINKRT [E17F], 3.93.
Consider ELRNVQDVVEDYKKRYNEEINKRT [E17N], for which the protein stability index was 4.29.
For ELRNVQDVVEDYKKRYIEEINKRT [E17I], the protein stability index was found to be 3.57.
In the case of ELRNVQDVVEDYKKRYSEEINKRT [E17S], the protein stability index came out at 3.86.
With ELRNVQDVVEDYKKRYQEEINKRT [E17Q] the figure was 3.8; with ELRNVQDVVEDYKKRYKEEINKRT [E17K], 3.24; with ELRNVQDVVEDYKKRYDEEINKRT [E17D], 3.23.
For ELRNVQDVVEDYKKRYTEEINKRT [E17T], the protein stability index stood at 3.45.
For ELRNVQDVVEDYKKRYCEEINKRT [E17C], the protein stability index was determined as 3.24.
For the variant ELRNVQDVVEDYKKRYAEEINKRT [E17A], the protein stability index came to 2.84.
With ELRNVQDVVEDYKKRYLEEINKRT [E17L], the protein stability index worked out at 4.43.
As for ELRNVQDVVEDYKKRYVEEINKRT [E17V], the protein stability index is 3.93.
For ELRNVQDVVEDYKKRYREEINKRT [E17R], the protein stability index worked out at 4.12.
Consider ELRNVQDVVEDYKKRYYEEINKRT [E17Y], for which the protein stability index came out at 3.15.
For the variant ELRNVQDVVEDYKKRYGEEINKRT [E17G], the protein stability index was found to be 3.1.
For the variant ELRNVQDVVEDHKKRYEEEINKRT [Y12H], the protein stability index turned out to be 4.09.
Consider ELRNVQDVVEDLKKRYEEEINKRT [Y12L], for which the protein stability index turned out to be 3.22.
The same measure for ELRNVQDVVEDNKKRYEEEINKRT [Y12N]: 4.89.
Take ELRNVQDVVEDMKKRYEEEINKRT [Y12M]: the protein stability index turned out to be 4.56.
The same measure for ELRNVQDVVEDSKKRYEEEINKRT [Y12S]: 4.26; for ELRNVQDVVEDPKKRYEEEINKRT [Y12P]: 3.53.
Regarding ELRNVQDVVEDRKKRYEEEINKRT [Y12R], the protein stability index turned out to be 3.66.
In the case of ELRNVQDVVEDQKKRYEEEINKRT [Y12Q], the protein stability index was 4.12.
In the case of ELRNVQDVVEDFKKRYEEEINKRT [Y12F], the protein stability index was determined as 3.85.
The same measure for ELRNVQDVVEDEKKRYEEEINKRT [Y12E]: 2.66; for ELRNVQDVVEDVKKRYEEEINKRT [Y12V]: 4.23.
Turning to ELRNVQDVVEDTKKRYEEEINKRT [Y12T], the protein stability index is 4.05.
